{"source": "patent US12286461B2", "about": "“Recombinant fused polypeptide and use thereof” (priority 2019, dated 2025)", "key": {"[1]": {"test_system": "SD rats with renal fibrosis", "experiment": "Renal fibrosis animal model (ureter ligation)", "type": "in vivo", "conditions": "6 mg/kg s.c. once every five days, after 15 days", "description": "A renal fibrosis animal model was established. SD rats were anesthetized with 4% chloral hydrate, injected with 1 mL/100 g intraperitoneally, fixed to an operation board, and sterilized in an operation area for further use. […] Muscular layers and abdominal walls were sewed layer by layer, the suture was disinfected with alcohol. After SD rats woke up, the rats were put into a cage for feeding. In the blank group, ureter was not ligated, and other steps were the same.\nThen, the animals fell into a blank group, a model group, and recombinant fused polypeptide administration groups, and the administration was started on the second day after the operation, and was performed for 15 days. After administration for 15 days, blood was taken and supernatant was taken to detect the content of TGF-β1 in serum."}, "[2]": {"test_system": "SD rats with CCl4-induced hepatic fibrosis", "experiment": "CCl4-induced hepatic fibrosis animal model", "type": "in vivo", "conditions": "40% CCl4 i.p. twice a week for 8 weeks, fused polypeptides 6 mg/kg s.c. once every five days", "description": "Modeling was performed on the rats. Each group other than the blank group was injected with 40% CCl4 intraperitoneally twice a week, the first injection was performed at 3 mL/kg, and then injection was performed at 2 mL/kg. Modeling was performed for 8 weeks to induce hepatic fibrosis. After the intraperitoneal injection of CCl4 for the fourth time, the drugs were administered according to Table 3. After induction for 8 weeks, the administration was stopped. The SD rats were dissected the next day, and blood was taken. The liver tissue was stored in a refrigerator at −80° C. for further use. The expression of HYP in the hepatic tissue of rats was detected. [table]"}, "[3]": {"test_system": "Mycoplasma pneumoniae", "experiment": "Mouse pneumonia model, mycoplasma pneumonia", "type": "in vivo", "conditions": "BALB/C mouse pneumonia model, nasal drip; average ± standard deviation", "excerpt": "(§1) A mouse pneumonia model was successfully established by using a nasal drip method. BALB/C mice with a body weight of 18-24 g were selected, and then anesthetized with ether on day 0, day 1 and day 2, respectively, prepared Streptococcus pneumoniae bacteria solution, adenovirus concentrated solution, Mycoplasma pneumoniae, Chlamydia pneumoniae, protozoa and pneumonia fungi were slowly dropped into the nasal cavity of the mice, so that the bacteria solutions entered the trachea and bronchi, and the bacteria solutions were prevented from flowing into the esophagus during the operation to avoid inactivation of the bacteria solutions, so that the mouse pneumonia model was established. After the model was successfully established, the recombinant fused polypeptides according to the present invention were administered."}, "[4]": {"test_system": "pulmonary infections", "experiment": "Mouse pneumonia model, pneumonia caused by pulmonary infections", "type": "in vivo, BALB/C mice", "conditions": "BALB/C mouse pneumonia model, nasal drip, average ± standard deviation", "excerpt": "as §1"}, "[5]": {"test_system": "mice with myocardial fibrosis", "experiment": "Isoprenaline-induced myocardial fibrosis animal model", "type": "in vivo", "conditions": "BALB/c mice, isoprenaline 5 mg/kg s.c. daily for 7 days, 12 mg/kg s.c. (Table 5), after the 8th day, FIG. 5", "description": "In the model group, the experimental mice were injected with isoprenaline (ISO) (5 mg/kg) subcutaneously on the back of the mice every day for 7 consecutive days, and the mice were injected with normal saline subcutaneously (200 μL/mouse) every day. In the blank group, normal saline was injected subcutaneously (200 μL/mouse) every day. […] After the 8th day, blood was taken and was centrifuged, the supernatant was taken, and the content of TGF-β1 in serum was detected."}, "[6]": {"test_system": "pneumonia fungi", "experiment": "Mouse pneumonia model, fungal pneumonia", "type": "in vivo", "conditions": "BALB/C mouse pneumonia model, nasal drip; average ± standard deviation", "excerpt": "as §1"}, "[7]": {"test_system": "adenovirus", "experiment": "Mouse pneumonia model, viral pneumonia", "type": "in vivo", "conditions": "BALB/C mouse pneumonia model, nasal drip; average ± standard deviation", "excerpt": "as §1"}, "[8]": {"test_system": "Streptococcus pneumoniae", "experiment": "Mouse pneumonia model, bacterial pneumonia", "type": "in vivo", "conditions": "BALB/C mouse pneumonia model, nasal drip; average ± standard deviation", "excerpt": "as §1"}, "[9]": {"test_system": "mice with bleomycin-induced skin fibrosis", "experiment": "Bleomycin-induced skin fibrosis model", "type": "in vivo, C57/BL black mice", "conditions": "C57/BL mice, bleomycin 10 μg/mL s.c. daily for 28 days, 10 mg/kg s.c. once every five days, 6 times, FIG. 6", "description": "Bleomycin (10 μg/mL) was injected subcutaneously every day for 28 days to form skin fibrosis. During the modeling period, the administration groups were given drugs for treatment. After modeling, the mice were killed on the next day, and the skin tissue of the mouse back was taken to detect the content of HYP in the skin tissue. [table]"}, "[10]": {"test_system": "Chlamydia pneumoniae", "experiment": "Mouse pneumonia model, chlamydia pneumonia", "type": "in vivo", "conditions": "BALB/C mouse pneumonia model, nasal drip; average ± standard deviation", "excerpt": "as §1"}, "[11]": {"test_system": "protozoa", "experiment": "Mouse pneumonia model, protozoal pneumonia", "type": "in vivo", "conditions": "BALB/C mouse pneumonia model, nasal drip; average ± standard deviation", "excerpt": "as §1"}, "[12]": {"test_system": "SD rats with bleomycin-induced pulmonary fibrosis", "experiment": "Bleomycin-induced pulmonary fibrosis animal model", "type": "in vivo", "conditions": "for content of TGF-β1 in serum, difference from the model group: fused polypeptides 10 mg/kg s.c. once every five days, nintedanib 25 mg/kg intragastric once a day", "description": "SD rats were anesthetized by intraperitoneal injection of 4% chloral hydrate with a concentration of 1 mL/100 g. After anesthesia, the rats were fixed and their necks were disinfected by using cotton with 75% alcohol. The skin of the rat neck was longitudinally cut with scissors, and the fascia and muscle were longitudinally bluntly torn with tweezers to expose the trachea. A syringe was inserted into the trachea to inject 5 mg/kg bleomycin, while a blank group was injected with an equal amount of normal saline. Then a rat plate was quickly erected and rotated, the rats' breathing was observed, the neck wound was sterilized after rotation and was sewn, and an amoxicillin anti-inflammatory drug was sprinkled on the suture. After the operation, the rats were put back into a dry and clean cage for resting, waiting for awakening. The rats were awakened after about 1-2 hours, and then fed normally. On the 7th day after modeling, modeling group animals randomly fell into a model group, a Nintedanib positive drug group, recombinant fused polypeptide 1, 2, 3 and 4 dosage groups, and a normal control group, and the groups were administered separately for an administration cycle of 15 days. Living situations of rats were observed every day and their weights were weighed. After administration for 15 days, the eyeballs were removed and blood was taken, the rats were dissected, and lungs were taken. The content of TGF-β1 in serum and the content of HYP in lung tissues were detected."}, "[13]": {"conditions": "listed as recombinant fused polypeptide IV"}}}
{"molecule": "Acetyl-SDKPGGGGTSLDASIIWAMMQNGGGGLSKLAEAAAKEAAAKEAAAKEAAAKKPRCWRGEGGGGIVRRADRAAVPGGGGRGD (protein, N-acetyl, Recombinant fused polypeptide Y-linker2-X expressed in 293 cells) SDKPGGGGTSLDASIIWAMMQNGGGGLSKLAEAAAKEAAAKEAAAKEAAAKKPRCWRGEGGGGIVRRADRAAVPGGGGRGD", "values": [{"measurement": "content of TGF-β1 in serum, difference from the model group", "setting": "[1]; FIG. 4, listed as recombinant fused polypeptide 4, 6 mg/kg", "value": "highly significantly different from the model group (***P<0.001)"}, {"measurement": "content of TGF-β1 in serum, difference from the model group", "setting": "[1]; FIG. 4, listed as recombinant fused polypeptide IV, 6 mg/kg", "value": "can lower the TGF-β1 content"}, {"measurement": "content of HYP in liver tissue, difference from the model group", "setting": "[2]; FIG. 3, listed as Recombinant fused polypeptide 4", "value": "highly significantly different from the model group (***P<0.001)"}, {"measurement": "content of HYP in liver tissue, difference from the model group", "setting": "[2]; FIG. 3, listed as recombinant fused polypeptide IV", "value": "can lower the HYP content"}, {"measurement": "Inhibitory effect, Mycoplasma pneumonia", "setting": "[3]", "value": "47.30 ± 5.30"}, {"measurement": "Inhibitory effect, Pneumonia caused by pulmonary infections", "setting": "[4]", "value": "56.93 ± 5.28"}, {"measurement": "Inhibitory effect, Pneumonia caused by pulmonary infections", "setting": "[4]; [13]", "value": "inhibitory effect"}, {"measurement": "content of TGF-β1 in serum, difference from the model group", "setting": "[5]; listed as recombinant fused polypeptide 4", "value": "significantly different from the model group (**P<0.01)"}, {"measurement": "content of TGF-β1 in serum, difference from the model group", "setting": "[5]; [13]", "value": "can lower the TGF-β1 content"}, {"measurement": "Inhibitory effect, Fungal pneumonia", "setting": "[6]", "value": "54.12 ± 5.12"}, {"measurement": "Inhibitory effect, Viral pneumonia", "setting": "[7]", "value": "78.12 ± 8.27"}, {"measurement": "Inhibitory effect, Bacterial pneumonia", "setting": "[8]", "value": "48.61 ± 6.54"}, {"measurement": "content of HYP in skin tissue, difference from the model group", "setting": "[9]; listed as recombinant fused polypeptide 4, 10 mg/kg", "value": "highly significantly different from the model group (***P<0.001)"}, {"measurement": "content of HYP in skin tissue, difference from the model group", "setting": "[9]; listed as recombinant fused polypeptide IV, 10 mg/kg", "value": "can lower the hydroxyproline content"}, {"measurement": "Inhibitory effect, Chlamydia pneumonia", "setting": "[10]", "value": "55.26 ± 6.12"}, {"measurement": "Inhibitory effect, Protozoal pneumonia", "setting": "[11]", "value": "63.45 ± 4.68"}, {"measurement": "Survival rate (%)", "setting": "[12]; bleomycin 5 mg/kg intratracheal, dosage 10 mg/kg (Table 2), administration cycle 15 days from day 7 after modeling", "value": 92.9, "unit": "%"}, {"measurement": "hydroxyproline (HYP) content in lung tissue", "setting": "[12]; bleomycin pulmonary fibrosis, 10 mg/kg s.c. once every five days, after 15 days, FIG. 1", "value": "can lower the hydroxyproline content"}, {"measurement": "content of TGF-β1 in serum, difference from the model group", "setting": "[12]; bleomycin pulmonary fibrosis, after 15 days, FIG. 2, listed as recombinant fused polypeptide 4", "value": "significantly different from the model group (*P<0.05)"}, {"measurement": "content of TGF-β1 in serum, difference from the model group", "setting": "[12]; bleomycin pulmonary fibrosis, after 15 days, FIG. 2, listed as recombinant fused polypeptide IV", "value": "can lower the TGF-β1 content"}]}
